Where a chain is given by its changes, count along the chain named.
How the values were obtained:
[1] = molecular target: T1, human IL-18 (MBL Medical & Biological Laboratories, Co., Ltd.) (human, UniProt Q14116 37-193, biotinylated (Biotin-PEAC5-maleimide or Biotin-AC5 Sulfo-OSu) in the streptavidin plate ELISAs and the panning; not labelled in the receptor binding and KG-1 assays); assay: blocking ELISA: human IL-18 with IL-18Rα-hFc-His and the antibody added to plate-bound IL-18Rβ-hFc, anti-His tag/HRP; blocked partner: IL-18 receptor
T1 construct: Bought protein; also called human interleukin-18; biotinylated human IL-18
T1 sequence (looked up): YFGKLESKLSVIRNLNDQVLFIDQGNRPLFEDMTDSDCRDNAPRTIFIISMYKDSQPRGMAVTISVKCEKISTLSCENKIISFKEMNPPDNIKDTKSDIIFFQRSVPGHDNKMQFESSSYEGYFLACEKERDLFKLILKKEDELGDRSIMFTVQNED
Experimental: IL-18Rβ-hFc (R&D Systems, Inc.) was added at 100 μL/well at a concentration of 1 μg/mL to Covalink plates (Nunc) and incubated at room temperature for 1 hour and then incubated overnight at 4° C. On the next day, the plates were washed with PBS (phosphate buffered saline) and blocked with 1% BSA (bovine serum albumin)-PBS. Human IL-18 (MBL Medical & Biological Laboratories, Co., Ltd.) was prepared at a concentration of 0.5 μg/mL with 1% BSA-PBS, and IL-18Rα-hFc-His (R&D Systems, Inc.) was prepared at a concentration of 2 μg/mL with 1% BSA-PBS. Both of the solutions were mixed (50 μL each). The obtained anti-IL-18 antibody was further added to the IL-18/IL-18Rα-hFc-His mixed solution. This mixed solution was added to the IL-18Rβ-hFc-immobilized Covalink plates and incubated at 37° C. for 1 hour. After 1 hour, the plates were washed with PBST (phosphate buffered saline-Tween 20), and a detection antibody anti-His tag/HRP (Bethyl Laboratories, Inc.) was added at 100 μL/well to the plates and incubated at 37° C. After 1 hour, the plates were washed with PBST, and TMB (Sigma-Aldrich Corp.) was added at 100 μL/well to the plates to develop color. After 30 minutes, the reaction was terminated with 2 N sulfuric acid, and the color values (O.D. 450 nm/650 nm) were measured using a microplate reader (Molecular Devices, Inc.).

[2] = molecular target: T2, K53A variant of human IL-18 (human, UniProt Q14116 37-193, K53A, biotinylated); assay: ELISA on immobilised biotinylated K53A IL-18, antibody at 1 µg/mL
T2 construct: On the precursor entry the residue at 53 may not be K; the numbering is likely that of mature IL-18
T2 sequence (looked up): T1 sequence (looked up) with K53A
Experimental: Next, these human IL-18 proteins were biotinylated, then each diluted to 1 μg/mL with PBS (Sigma-Aldrich Corp.), added at 100 μL/well to Streptavidin plates (Nunc), and incubated at room temperature for 2 hours to immobilize them. After the immobilization, the plates were washed with PBST, and human IL-18BPa-hFc (R&D Systems, Inc.) or the IgG molecule-type 4A6D was prepared at 1 μg/mL with 1% BSA-PBS, added at 100 μL/well to the plates, and incubated at 37° C. After 1 hour, the plates were washed with PBST, and a detection antibody anti-hFc/HRP (Cosmo Bio Co., Ltd., The binding site) was added at 100 μL/well to the plates and incubated at 37° C. After 1 hour, the plates were washed with PBST, and TMB (Sigma-Aldrich Corp.) was added at 100 μL/well to the plates to develop color. After 30 minutes, the reaction was terminated with 1 M sulfuric acid, and the color values (O.D. 450 nm/650 nm) were measured using a microplate reader (Molecular Devices, Inc.).

B1: IgG molecule-type 4A6D (antibody, V domains shown)
VH: EVQLVESGGGLVQPGGSMRLSCTASGFTFDEYAMSWVRQAPGKGLEWVSGISTGGGGTYYADSVEGRFTISRDNSKNTLYLQMNSLRAEDTAVYYCAKPWLSGSRSGDFWGQGTLVTVSS
VL: QSALTQPASVSGSPGQSITISCTGTSSDVGGYNYVSWYQQHPGKAPKLLIYEVSHRPSGVSDRFSGSKSGNTASLTISGLQAEDEADYYCSSFTSSSSLYVFGTGTKLTVL
notes: detected with anti-hFc, so human constant regions; also called human anti-human IL-18 antibody 4A6D
- IC50 (read off the curve) [1]: ~0.3 µg/mL
- binding result [2]: binds

Source: patent US20190077858A1 (KM BIOLOGICS, published 2019)
